The results in this text go back to the domain aggregation screens of Martell et al. (2025).

A short description of the data set: soluble fraction after stress (log2 fold change); higher = more stays soluble; pooled small domains, quantitative proteomics. As to conditions: stress: pH 4. The method in brief:
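How much of each domain stays soluble after acid stress, expressed as a fold change, is used to gauge aggregation propensity. Pooled custom libraries of small domains underwent pH 4 stress before high-throughput quantitative proteomics. A higher log2 value means more of the domain stayed soluble.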
As to “HMANTLDPMDLKQIISLHLDGFSNRKIGATLGISRNTVNTYMRLFSVSDYALKELLTLDNATLDKLFPS”, the “soluble fraction (log2)” value was -0.603.

Regarding “HMANYYEILGVKHDATEAEIKAAYKQAAKSAHPDAGGSNEKMQEVNAAWEVLGNAQKRAEYDARMA”, the “soluble fraction (log2)” value turned out to be 0.349.

As to “HMAPAGGITRQDLFAWGLMGGEGSREKRQQLKKSLGLPSHLGTSGFLDALNLIATRDQVEALLHK”, the “soluble fraction (log2)” value is at least 0.43.

For “HMAPAILTVQVKPDKIREIIGPGGKMIRMIQSETNTRVEVDDSGLVKIAAVSKEEGEAALKMVSDITME”, the “soluble fraction (log2)” value was -0.177.

“HMAPDAPDGFVHRWIRAEMLGQEDKSNVHRRMQEGYELVRADEYPDSDLPVAEGRYAGIIGVGGLLLARF”: the “soluble fraction (log2)” value is -0.268.

On to “HMAPDDTAVWSAFIGWFRTAPDGPNPLGAYAAKLGEEGLDAAEVGRRMTVIVRLFAEKPEGAEVFYDRTYA”, for which the “soluble fraction (log2)” value was -0.456.

Consider “HMAPDYYALLGVPRNATTAEVRKAFRGKALEQHPDRGGDEESFRLLSKAYDVLSDSERRKYYDRTG”, for which the “soluble fraction (log2)” value worked out at 0.14.

“HMAPEKLVHELVGLSLRAGNLDLLAATLSAHKTVLSKESTAEYVKAGLAIEPNHLPLRVLAEQDLGWS”: the “soluble fraction (log2)” value was -0.936.

For “HMAPFVIQQGQDVRLISKGPGFAVSNDGKALTNAAEGQLARARTANGQTVSGIARQGGIIEIA”, the “soluble fraction (log2)” value was -0.068.

For the sequence “HMAPGIGDSKYFSHIYEMKHIDTIIDNDKGDRLIEHFEIQDTPFIFTKHWTSAFGFSKRQQEIITDYLSYF”, the “soluble fraction (log2)” value was -0.0653.

“HMAPGVHVEALLPYTAGSLVSQIREYGNVDAVEYRDTGILLQADVDERLAAQIMDQALEDPV”: the “soluble fraction (log2)” value is -1.03.

For the sequence “HMAPLADQIVDLLKEHDGFLPLHDNSSPEDIRATVGTSKKAFKQAIGGLFREKRIVIGPTGIRLIS”, the “soluble fraction (log2)” value is 0.146.

As to “HMAPLATIHVSSLSQKPFYLYGTFEDRRGNHLFFLEQIMGENKSIPVAMPSSAINPKIHASLTPPKG”, the “soluble fraction (log2)” value is -0.0804.

On to “HMAPLQDENGDLTFSYNGKTYTVNVNSEEDRNSFAEDFNKENGKKFSWFKERAGLQHYVFYDTEM”, for which the “soluble fraction (log2)” value is -0.918.

Consider “HMAPLVTLEADGNGAVKLSNLAGHSIREVAGALGGAGLSLIPVGSGTSWKQNPAPGTVLHSGDTVTVYF”, for which the “soluble fraction (log2)” value is 0.22.

With “HMAPPIQQQVESLMNSFAKIGVTVPMLESRLQHAMSAVTANELVMLRKIGASIRDGFATVAEQFPA”, the “soluble fraction (log2)” value came to 0.0598.

Regarding “HMAPPPPEGYIHRWIRESVMGFDDKKNLSARIREGFELVRAEEYPDYEAPTVMDGKHAGVIANGGLLLARF”, the “soluble fraction (log2)” value is -0.236.

With “HMAPQQARAAKTRVKLLDAAATVVRRDGIQAMTLARVAEEAGVSKGGLLHHFGSKEELVTGMLEQ”, the “soluble fraction (log2)” value was -0.402.

In the case of “HMAPRASDALTERELDVLRVVADGASVAEAAEMLVVSRETVKKHLGNIYAKLGVHSKMQAVALLREEGV”, the “soluble fraction (log2)” value was -1.27.

On to “HMAPRKNIRLLRAAQDKAAAEGDHETVDAIRGQIAALIETLPVQYREEYLLQEKGRENGLKLAIENAAK”, for which the “soluble fraction (log2)” value is -0.214.

“HMAPSLQISLKQAIITAQQQHPGSKALNADFDGARGTPRYVIETLLPTGELRELTIDAQSGQVMEDHPDR”: the “soluble fraction (log2)” value was 0.198.

For the sequence “HMAPSPEGAAILRESVESVARDQVDRVALTMTARGYTTAEIAAALMVDRSTISRRLYAMRDRYHAQQDNAQ”, the “soluble fraction (log2)” value is -0.666.

“HMAPSVNEVAWAQKIIDAHAEAAAAGKGLVVVDGKLIENLHVEEAKQLLSLSDAIAKNDASNG”: the “soluble fraction (log2)” value was -0.31.

Take “HMAPTGTDRQTPHTRDELYLVLSGTGTFVNGDARHPFGPGDALFVPAGAEHRFEDFSDDFRTWVVFYGAEG”: the “soluble fraction (log2)” value was -0.734.

As for “HMAPVVAILTRQLPLPQAQQLAGQTALVRVVKGGPGNEAELEFAGQNIQVKLPPGRQLTAGEMVTVAFALS”, the “soluble fraction (log2)” value was -0.0882.

“HMAQASEPMLALIRLKWWEEQINSPVKGDSLPLLSQLNSHISAGYLSRSQVTSLIQRWQDYA”: the “soluble fraction (log2)” value is -1.18.

Turning to “HMAQFNELLFELRQDRKMTQEDLAKVLFVTSGTISNYENGVHLPDIEKLISLADFFGVTTDYLLG”, the “soluble fraction (log2)” value was -0.726.

Regarding “HMAQLKYEQIKSYLQAEAVKPESATRMPTVRELMRRFNVSLVTVNRALSELEHAKVIVRRQGAGIVAAQ”, the “soluble fraction (log2)” value was 0.0424.

Regarding “HMAQLPADMSRVKSADVSDAQLREFVQKAQASGQTETQLFREFSRRGMPTNEINILRSRMVGLQNN”, the “soluble fraction (log2)” value came to 0.0928.

“HMAQLPPTATARATSDVSGLTASAALRTLLEQGFVPQIHGSGKVSRQHPPAGTLLEPGSTIQLFLEPS”: the “soluble fraction (log2)” value was at least 0.43.

Turning to “HMAQLSDMLTYLRKRKGLSQQELANTLKISRSAIGMYETGKREPDLETLEVFADFYNVDMNTLTGKA”, the “soluble fraction (log2)” value is 0.192.

Take “HMAQNILPGQKNAIKSLATSAGFSQQELDSYLSQNYGKTLNNLSQKEGASLISGLQDGSIKKP”: the “soluble fraction (log2)” value was found to be 0.0359.

“HMAQPIPSGSDIREAREAAGMNLRDFARMVGGGAIGTWSHYETGKPIRVKSISPEVWQRVRDFILQHGK”: the “soluble fraction (log2)” value was determined as 0.036.

On to “HMAQRAADEARTHEILGLLRQARAALDHGGTARAARLRASIAEKLPAAPALPAWFARQLEQVDSQLAELQD”, for which the “soluble fraction (log2)” value is -0.568.

On to “HMAQRFDLGDKLNPQSSEFEYLGTSSRTGVSTYRYKNVPTQLFFGRQIGDIVVGVRRGMITLTIYNL”, for which the “soluble fraction (log2)” value was determined as 0.146.

With “HMAQSTALVNLAQAEINKRGLTQTEVQARLSEEGINVNSISPAEYPKYQKQILSILDQMQKEKQLSKEV”, the “soluble fraction (log2)” value is 0.359.

Regarding “HMAQVDAVQQVLQAFPALRSGQSQHLSQVVAALRQRGILTVGTKTTAWFAQWASVFQLLPLQVPNRIRYQS”, the “soluble fraction (log2)” value turned out to be 0.2.

Turning to “HMARGRETILLVEDEPAVRGLVHATLRLHGYTVLEARHGIEALLTSTKFVGPIHLLLTDVVMPQMS”, the “soluble fraction (log2)” value came to 0.265.

On to “HMARHIHFEVHVQQAGRWSIHAQFGAGQREKAIEEAKKIEKTPGFDSVKVVKETYDSDLGNHQDTTIYRGP”, for which the “soluble fraction (log2)” value was 0.0508.

As to “HMARKTIFHSLLGELEQRIGRLPAGTILPAEQALADEYGVSKPTLRRALAELAEHGLITKENGIGSVVI”, the “soluble fraction (log2)” value was at least 0.43.

As for “HMARLAGVDLPREKRIEIGLTYIYGIGLARSQEILKKAGINPDIRVKDLTDEQEQAIRNAMDGYIVEGDL”, the “soluble fraction (log2)” value is -0.0746.

Regarding “HMARLQEVVVRVPVEDGQTLAAIYREAEVIERADEGTGVLLTVRIPAPLLGRLRRLEGVHVQP”, the “soluble fraction (log2)” value was -0.348.

As for “HMARRLELEDIPVDEVLFTASRNLVDAIEVMDPSRQAPMIQPWLKQALEWAVGALGFSKEDAVATLTSD”, the “soluble fraction (log2)” value was -0.264.

In the case of “HMASAAHYEGVKTEGESDNDVITRVLTATGVTAEKDDIFVVKSLIADGKYSYTAYVYDGSVWAAMD”, the “soluble fraction (log2)” value was -0.541.

As for “HMASALDVALNDFAEMRKKMRKPLTDRALALTLSELEKLAPGNDEKKIAILNQSIQRGWQGVFPLK”, the “soluble fraction (log2)” value is 0.0901.

With “HMASDEVPGAGFKWREDVLLRVMEANGIDKSNRDDFVRHAVNFDDDDNNYLKKAEIEAAAAAWVESQSPA”, the “soluble fraction (log2)” value is -0.239.

Consider “HMASDLPTVTIMGKTFYTYVAKKGESFFGIANRFGWDPELLVKTNRELETPLDKGALIYYPVPKKPK”, for which the “soluble fraction (log2)” value was -0.521.

On to “HMASIATLTVKALGGASDVVIRDKDGRIIWADRLPAGQSHRVFGHAPFNVAASHASRVQLSLLGKDVGRV”, for which the “soluble fraction (log2)” value was -0.147.

For “HMASISDRIRLLRAESHMTQEEFGRIFGISKPTVSFYEHGKSVPNDQIKTAIARYFGVSVDYLLGVTD”, the “soluble fraction (log2)” value is -0.467.

On to “HMASKTGTITATSLNVRSGAATTYSILGTLSNGKTVTIYEESNGWYKINYNGGYGWVSKTYVSTG”, for which the “soluble fraction (log2)” value is -0.105.
